Target: the molecule itself
Assay: SDS-PAGE and Western blot of SDS-resistant high molecular weight forms; 5 ug recombinant CRES monomer alone, 50 mM sodium phosphate pH 8, room temperature 3 h with shaking and silicon beads, no ThT; 25,000 x g pellet in Laemmli buffer, Western blot for CRES

B1: Tag-less full-length mouse CRES C48A protein (recombinant) (natural protein, UniProt P32766 20-142, looked up)
chain: VGVDQSKNEVKAQNYFGSINISNANVKQAVWFAMKEYNKESEDKYVFLVDKILHAKLQITDRMEYQIDVQISRSNCKKPLNNTENCIPQKKPELEKKMSCSFLVGALPWNGEFNLLSKECKDV
notes: Cystatin-related epididymal spermatogenic protein (CRES, Cst8), mouse, called tag-less and full-length; C48A introduced to prevent inappropriate disulfide bond formation; a recombinant form without the signal peptide is possible (surmise); also called CRES monomer; recombinant CRES protein
binding result: binds

Reference: paper PMC12818389, “The Functional Epididymal Amyloid Cystatin‐Related Epididymal Spermatogenic (CRES) is a Component of the Mammalian Brain Extracellular Matrix” (Journal of Neuroscience Research, 2026)
